Test [1] concerns the target TGF-β1 of the porcine enamel matrix (porcine (endogenous in porcine enamel)). The test is described as follows: co-elution on RP-HPLC, TGF-β1 quantified by ALP-inducing activity of HPDL cells; amelogenins as purified from enamel (before the in vitro binding); ng of TGF-β1 per mg of amelogenin calculated from standard CF-hTGF-β1 (0.3 ng mL^-1), after dilution correction; complexes formed in vivo.

Test [2] deals with carrier-free recombinant human TGF-β1 (human). Briefly: in vitro binding, RP-HPLC, TGF-β1 quantified by ALP-inducing activity of HPDL cells; purified amelogenin mixed with CF-hTGF-β1 or rh-latent TGF-β1, fractions from RP-HPLC tested in the ALP-HPDL system; ng per mg of amelogenin calculated from standard CF-hTGF-β1 (0.3 ng mL^-1), after dilution correction; details in the Supplementary Methods.
Sequence of carrier-free recombinant human TGF-β1 (human) (P01137 279-390): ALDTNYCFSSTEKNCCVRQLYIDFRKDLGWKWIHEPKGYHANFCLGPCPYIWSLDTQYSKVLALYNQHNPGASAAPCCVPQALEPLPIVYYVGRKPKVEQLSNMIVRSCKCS

This passage reports original TGF-β1, ng against 1 mg of amelogenin and bound TGF-β1, ng against 1 mg of amelogenin results from publication PMC5025654.

Sequence of TGF-β1 of the porcine enamel matrix (porcine (endogenous in porcine enamel)) (P07200 279-390): as the sequence (P01137 279-390) above

B1: P173 amelogenin (natural protein)
chain: MPLPPHPGHPGYINFSYEVLTPLKWYQNMIRHPYTSYGYEPMGGWLHHQIIPVVSQQTPQSHALQPHHHIPMVPAQQPGIPQQPMMPLPGQHSMTPTQHHQPNLPLPAQQPFQPQPVQPQPHQPLQPQSPMHPIQPLLPQPPLPPMFSMQSLLPDLPLEAWPATDKTKREEVD
With B1, the original TGF-β1, ng against 1 mg of amelogenin in test [1] was 0.345 ng. The bound TGF-β1, ng against 1 mg of amelogenin in test [2] was 1.18 ng.
